In patent US20170058053A1 (Xencor, published 2017):

T1: HM1.24 antigen on a Biacore chip (UniProt Q10589 49-161, limits assumed)
T1 construct: also called HM1.24 chip
T1 sequence (looked up): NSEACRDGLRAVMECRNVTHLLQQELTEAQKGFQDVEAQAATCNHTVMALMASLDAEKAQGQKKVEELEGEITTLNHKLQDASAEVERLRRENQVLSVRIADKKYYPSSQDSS

T2: FcγRIIb (human, UniProt P31994 43-217, limits assumed)
T2 construct: also called CD32b
T2 sequence (looked up): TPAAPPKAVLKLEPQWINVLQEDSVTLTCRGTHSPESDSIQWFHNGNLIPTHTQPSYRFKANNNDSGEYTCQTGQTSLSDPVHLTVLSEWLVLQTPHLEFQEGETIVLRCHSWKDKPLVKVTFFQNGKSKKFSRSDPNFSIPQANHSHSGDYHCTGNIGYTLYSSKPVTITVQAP


What was measured:
[1] = target: T1, HM1.24 antigen on a Biacore chip; assay: SPR (Biacore), 100 nM mAb-Fv injected over a HM1.24 chip
[2] = target: T3, FcγRIIIa, V158 isoform (human, UniProt P08637 17-208, limits assumed); assay: SPR (Biacore), 9518 captured (protein A by the text, HM1.24 by the legend of FIG. 16), receptor concentration series, 1:1 Langmuir global fit
T3 construct: no change against a named entry is printed; also called FcγRIIIa(158V); V158 FcγRIIIa
T3 sequence (P08637 17-208 F176V limits assumed): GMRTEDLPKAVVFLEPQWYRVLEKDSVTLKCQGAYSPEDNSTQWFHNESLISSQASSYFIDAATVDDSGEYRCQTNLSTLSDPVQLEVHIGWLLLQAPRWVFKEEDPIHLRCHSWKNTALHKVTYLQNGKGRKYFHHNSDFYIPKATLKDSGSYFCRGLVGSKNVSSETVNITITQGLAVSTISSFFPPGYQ
Procedure: (§1) Binding measurements were performed using a Biacore® 3000 instrument (Biacore®). Antibodies were captured onto an immobilized Protein A (Pierce) CM5 biosensor chip (Biacore®), generated using a standard primary amine coupling protocol. All measurements were performed in HBS-EP (0.01 M HEPES pH 7.4, 0.15 M NaCl, 3 mM EDTA, 0.005% v/v surfactant P20), and glycine buffer (10 mM glycine-HCl, pH 1.5) was used for the Protein A surface regeneration. All antibodies (50 nM in HBS-EP) were immobilized on the Protein A surface. Fc receptors were injected over antibody bound surface, followed by a dissociation phase. After each cycle, the Protein A surface was regenerated by injecting glycine buffer (pH 1.5). Data were processed by zeroing time and response before the injection of receptor and by subtracting appropriate nonspecific signals (response of reference channel and injection of running buffer).
Data were processed by zeroing time and response before the injection of receptor and by subtracting appropriate nonspecific signals. The equilibrium constant was calculated by global fitting of binding data with a 1:1 Langmuir binding model using BIAevaluation software.

[3] = target: T3, FcγRIIIa, V158 isoform; assay: SPR (Biacore); the reference value of native IgG1 (280 nM) is cited from the literature
Procedure: Affinity of the mAb-Fv for FcγRIIIa was measured using Biacore®. The protein A capture format was used as described above, except that sensorgrams were obtained for a concentration series of receptor analyte in order to calculate an accurate affinity. […] Data were processed by zeroing time and response before the injection of receptor and by subtracting appropriate nonspecific signals (response of reference channel and injection of running buffer). The equilibrium constant was calculated by global fitting of binding data with a 1:1 Langmuir binding model using BIAevaluation software.
Similar binding experiments were carried out for the αHM1.24×αFcγRIIIa mAb-Fv. […] Data were processed by zeroing time and response before the injection of receptor and by subtracting appropriate nonspecific signals. The equilibrium constant was calculated by global fitting of binding data with a 1:1 Langmuir binding model using BIAevaluation software.

[4] = target: T2, FcγRIIb; assay: SPR (Biacore), 9547 captured on protein A, receptor concentration series, 1:1 Langmuir global fit
Procedure: as §1

[5] = target: T2, FcγRIIb; assay: SPR (Biacore); the reference value of native IgG1 (2.3 µM) is cited from the literature

binding result [1] | Kd [2] [nM] | fold tighter than native IgG1 [3] [fold] | Kd [4] [nM] | fold tighter than native IgG1 [5] [fold] | Binder
binds | 96 | ~2.9 |  |  | 9518 αHM1.24×αFcγRIIIa mAb-Fv (bispecific antibody, IgG1, mAb-Fv, IgG1 G236R/L328R, hetero-Fc TF-HA, Linker 2; copies: 1 + 1 + 2) heavy 1: QVQLVQSGAEVKKPGASVKVSCKASGYTFTPYWMQWVRQAPGQGLEWMGSIFPGSGDTRYSQSFQGQVTISADKSISTAYMELSRLRSDDTAVYYCARGLRRGGYYFDYWGQGTLVTVSSASTKGPSVFPLAPSSKSTSGGTAALGCLVKDYFPEPVTVSWNSGALTSGVHTFPAVLQSSGLYSLSSVVTVPSSSLGTQTYICNVNHKPSNTKVDKKVEPKSCDKTHTCPPCPAPELLRGPSVFLFPPKPKDTLMISRTPEVTCVVVDVSHEDPEVKFNWYVDGVEVHNAKTKPREEQYNSTYRVVSVLTVLHQDWLNGKEYKCKVSNKARPAPIEKTISKAKGQPREPQVTTLPPSREEMTKNQVSLTCLVKGFYPSDIAVEWESNGQPENNYKTFPPVLDSDGSFFLYSKLTVDKSRWQQGNVFSCSVMHEALHNHYTQKSLSLSPGKSSDKTHTSPPSPGGGGSGGGGSGGGGSGGGGQVTLKESGPGILQPSQTLSLTCSFSGFSLRTSGMGVGWIRQPSGKGLEWLAHIWWDDDKRYNPALKSRLTISKDTSSNQVFLKIASVDTADTATYYCAQINPAWFAYWGQGTLVTVSASGHHHHHH heavy 2: QVQLVQSGAEVKKPGASVKVSCKASGYTFTPYWMQWVRQAPGQGLEWMGSIFPGSGDTRYSQSFQGQVTISADKSISTAYMELSRLRSDDTAVYYCARGLRRGGYYFDYWGQGTLVTVSSASTKGPSVFPLAPSSKSTSGGTAALGCLVKDYFPEPVTVSWNSGALTSGVHTFPAVLQSSGLYSLSSVVTVPSSSLGTQTYICNVNHKPSNTKVDKKVEPKSCDKTHTCPPCPAPELLRGPSVFLFPPKPKDTLMISRTPEVTCVVVDVSHEDPEVKFNWYVDGVEVHNAKTKPREEQYNSTYRVVSVLTVLHQDWLNGKEYKCKVSNKARPAPIEKTISKAKGQPREPQVYTLPPSREEMTKNQVHLTCLVKGFYPSDIAVEWESNGQPENNYKTTPPVLDSDGSFALYSKLTVDKSRWQQGNVFSCSVMHEALHNHYTQKSLSLSPGKSSDKTHTSPPSPGGGGSGGGGSGGGGSGGGGDIVLTQSPASLAVSLGQRATISCKASQSVDFDGDSFMNWYQQKPGQPPKLLIYTTSNLESGIPARFSASGSGTDFTLNIHPVEEEDTATYYCQQSNEDPYTFGGGTKLELKSGDYKDDDDK light: DIVMTQSPLSLPVTLGQPASISCKASQDVNTAVAWYLQKPGKSPKLLIYSASNRYTGVPDRITGSGSGTDFTLKISRVEAEDVGVYYCQQHYSTPFTFGSGTKLEIKRTVAAPSVFIFPPSDEQLKSGTASVVCLLNNFYPREAKVQWKVDNALQSGNSQESVTEQDSKDSTYSLSSTLTLSKADYEKHKVYACEVTHQGLSSPVTKSFNRGEC
 |  |  | 44 | ~52 | 9547 αCD19×αFcγRIIb mAb-Fv (bispecific antibody, IgG1, mAb-Fv, IgG1 G236R/L328R, hetero-Fc TF-HA, Linker 3; also called 9547 mAb-Fv; copies: 1 + 1 + 2) heavy 1: EVQLVESGGGLVKPGGSLKLSCAASGYTFTSYVMHWVRQAPGKGLEWIGYINPYNDGTKYNEKFQGRVTISSDKSISTAYMELSSLRSEDTAMYYCARGTYYYGTRVFDYWGQGTLVTVSSASTKGPSVFPLAPSSKSTSGGTAALGCLVKDYFPEPVTVSWNSGALTSGVHTFPAVLQSSGLYSLSSVVTVPSSSLGTQTYICNVNHKPSNTKVDKKVEPKSCDKTHTCPPCPAPELLRGPSVFLFPPKPKDTLMISRTPEVTCVVVDVSHEDPEVKFNWYVDGVEVHNAKTKPREEQYNSTYRVVSVLTVLHQDWLNGKEYKCKVSNKARPAPIEKTISKAKGQPREPQVTTLPPSREEMTKNQVSLTCLVKGFYPSDIAVEWESNGQPENNYKTFPPVLDSDGSFFLYSKLTVDKSRWQQGNVFSCSVMHEALHNHYTQKSLSLSPGKGGGGSGGGGSGGGGSGGGGSGGGGSGGGGQVQLQQPVTELVRPGASVMLSCKASDYPFTNYWIHWVKQRPGQGLEWIGVIDPSDTYPNYNKKFKGKATLTVVVSSSTAYMQLSSLTSDDSAVYYCARNGDSDYYSGMDYWGQGTSVTVSSGSHHHHHH heavy 2: EVQLVESGGGLVKPGGSLKLSCAASGYTFTSYVMHWVRQAPGKGLEWIGYINPYNDGTKYNEKFQGRVTISSDKSISTAYMELSSLRSEDTAMYYCARGTYYYGTRVFDYWGQGTLVTVSSASTKGPSVFPLAPSSKSTSGGTAALGCLVKDYFPEPVTVSWNSGALTSGVHTFPAVLQSSGLYSLSSVVTVPSSSLGTQTYICNVNHKPSNTKVDKKVEPKSCDKTHTCPPCPAPELLRGPSVFLFPPKPKDTLMISRTPEVTCVVVDVSHEDPEVKFNWYVDGVEVHNAKTKPREEQYNSTYRVVSVLTVLHQDWLNGKEYKCKVSNKARPAPIEKTISKAKGQPREPQVYTLPPSREEMTKNQVHLTCLVKGFYPSDIAVEWESNGQPENNYKTTPPVLDSDGSFALYSKLTVDKSRWQQGNVFSCSVMHEALHNHYTQKSLSLSPGKGGGGSGGGGSGGGGSGGGGSGGGGSGGGGDILLTQSPAILSVSPGERVSFSCRTSQSIGTNIHWYQQRTNGFPRLLIKNVSESISGIPSRFSGSGSGTDFILSINSVESEDIADYYCQQSNTWPFTFGGGTKLEIKGSHHHHHH light: DIVMTQSPATLSLSPGERATLSCRSSKSLQNVNGNTYLYWFQQKPGQSPQLLIYRMSNLNSGVPDRFSGSGSGTEFTLTISSLEPEDFAVYYCMQHLEYPITFGAGTKLEIKRTVAAPSVFIFPPSDEQLKSGTASVVCLLNNFYPREAKVQWKVDNALQSGNSQESVTEQDSKDSTYSLSSTLTLSKADYEKHKVYACEVTHQGLSSPVTKSFNRGEC
